According to patent US7264314B2, “Adrenocorticotropic hormone analogs and related methods” (priority 2004, dated 2007):
No end group written: not given here.

Biological target: T1, adrenal ACTH receptors such as MC-2R (explanted adrenal membrane) (Mus musculus, UniProt Q64326)
T1 construct: the adrenal halves were macerated or otherwise dissociated using Dounce Homogenizer to form a membrane fraction; from tissue; host or cells: membrane fraction of explanted mouse adrenal glands
Experiment: in vitro Serum-free Adrenal Competitive Binding Assay
Set-up: species or system mice
Settings: cold peptide at 10 nM, 100 nM, 1000 nM
Description: ACTH analog compounds that bind to adrenal membrane with a greater affinity than endogenous unmodified ACTH, and are able to displace unmodified ACTH can be identified using an in vitro Serum-free Adrenal Competitive Binding Assay (Example 3). […] A higher CPM level indicates the presence of greater amounts of the radiolabelled compound. […] Column 220 indicates the level of radio-labeled unmodified mACTH(1–24) detected after combining the explanted adrenal membrane with only the radio-labeled mACTH(1–24) for 2 hours.(no competitive binding). Columns 230, 240, and 250 show the results of competitive binding assays for binding of non-radio-labeled (“cold”) mACTH(1–24) to displace the radio-labeled mACTH(1–24) from the explanted adrenal membrane (measured in column 220) by competitive binding to receptors such as MC-2R on the adrenal membrane. […]
ACTH analogs with the ability to bind adrenal receptors with a greater affinity than compounds with known adrenal binding activity (preferably ACTH) can also be identified by performing an in vitro Adrenal Competitive Binding Assay, whereby measurement of the reduction in the amount of the radiolabelled adrenal-binding compound (e.g., ACTH) is measured at various concentrations of non-radio-labeled ACTH analog test compound in a medium containing explanted adrenal membrane. […]

T1 sequence (Q64326 whole entry): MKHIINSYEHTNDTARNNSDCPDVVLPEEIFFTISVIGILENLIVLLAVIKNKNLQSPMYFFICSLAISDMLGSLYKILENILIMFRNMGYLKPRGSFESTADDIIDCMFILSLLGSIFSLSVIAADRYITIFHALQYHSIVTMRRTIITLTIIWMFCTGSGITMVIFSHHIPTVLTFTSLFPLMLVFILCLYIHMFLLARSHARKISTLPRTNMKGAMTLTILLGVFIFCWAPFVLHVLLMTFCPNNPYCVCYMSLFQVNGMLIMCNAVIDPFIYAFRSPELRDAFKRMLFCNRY
T1 sequence (Q9D159 whole entry partner): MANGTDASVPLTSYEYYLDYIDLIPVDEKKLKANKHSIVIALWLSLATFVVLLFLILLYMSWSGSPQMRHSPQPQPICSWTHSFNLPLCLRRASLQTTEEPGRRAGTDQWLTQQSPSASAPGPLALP

“N-Ser^1-Tyr-Ser-Met-Glu^5-His-Phe-Arg-Trp-Gly^10-Lys-Pro-Val-Gly-Lys^15-Arg-Ala-Ala-Trp-Val^20-Lys-Val-Tyr-Pro-Ac (SYSMEHFRWGKPVGKRAAWVKVYP; not fully specified (C-terminus); printed as N-Ser1-Tyr-Ser-Met-Glu5-His-Phe-Arg-Trp-Gly10-Lys-Pro-Val-Gly-Lys15-Arg-Ala-Ala-Trp-Val20-Lys-Val-Tyr-Pro-Ac) [AT814]” was tested, and the “displacement of radio-labeled mACTH(1–24) from explanted adrenal membrane (CPM)” value was “displacement of the radio-labeled mACTH(1–24)”.
